± gives the standard deviation of the averaged measurements.
B1: library; a variant is named by its letters at N, in order (parent)
chain: AATGTTGTTGATGCAACCATAAAGTGATATTTAATAATTATTTATAATCAGCAACTTAACCACAAAACAACCATATATTGATATNTCACAAAACAACCATAANTTGATATTTTTGTGAATCGAGTATTTCAGCAAAACTACTGCAGTAAGAA

Tests used:
[1] = variants of: B1; test: relative integration efficiency (T-LR orientation) vs wild-type transposon end (log2 (normalized fold change)); transposon end mutated: left end; higher = more efficient transposition; conditions: with VchCAST RNA-guided transposition machinery (E. coli BL21(DE3) host, lacZ target)
Summary of the method: (§1)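 Pools of 1549 left-end or 1849 right-end barcoded transposon variants were cloned into a pUC57 mini-transposon donor and co-transformed into E. coli BL21(DE3) with a T7-driven effector plasmid carrying a CRISPR array, tniQ-cas8-cas7-cas6 and tnsA-tnsB-tnsC. Plating used 0.1 mM IPTG at 37°C for 18 h, and input plasmids and genomic integration junctions were PCR-amplified for Illumina sequencing, with two biological output replicates and four reference barcodes. Relative integration efficiency is the log-transformed fold change of output over input barcode abundance, normalised to the reference barcodes.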

[2] = variants of: B1; test: relative integration efficiency (T-RL orientation) vs wild-type transposon end (log2 (normalized fold change)); transposon end mutated: left end; higher = more efficient transposition; conditions: with VchCAST RNA-guided transposition machinery (E. coli BL21(DE3) host, lacZ target)
Summary of the method: as §1

| Variant | relative integration efficiency (log2) [1] | relative integration efficiency (log2) [2] |
| --- | --- | --- |
| CG A50C | -0.533 ± 0.31 | -0.119 ± 0.099 |
| CG A54G | 0.358 ± 0.56 | 0.00787 ± 0.0088 |
| CG A54T | 0.264 ± 0.087 | 0.224 ± 0.12 |
| CG A54C | -0.339 ± 0.014 | -0.178 ± 0.022 |
| CG A27T T28A A29T T30A | -0.918 ± 0.29 | -0.753 ± 0.39 |
| CG A46C | -0.118 ± 0.76 | -0.291 ± 0.11 |
| CG A46G | -0.0959 ± 0.59 | -0.0807 ± 0.18 |
| CG A46T | -0.195 ± 0.93 | -0.0773 ± 0.14 |
| CG A47T | 0.0475 ± 0.098 | 0.0568 ± 0.074 |
| CG A47C | -0.251 ± 0.89 | -0.0577 ± 0.11 |
| CG A47G | -0.05 ± 0.31 | -0.131 ± 0.15 |
| CG A29C T30G T31G T32G | -0.555 ± 0.56 | -0.723 ± 0.61 |
| CG A33T A34T T35A A36T | 0.405 ± 0.42 | 0.295 ± 0.092 |
| CG A59T C60G | 0.263 ± 0.38 | -0.145 ± 0.073 |
| CG A65C A66C A67C C68A | -1.01 ± 0.56 | -0.474 ± 0.22 |
| CG A34C A36G T38C A40G T42C A62G A65G A66C | -0.589 ± 0.68 | -0.685 ± 0.25 |
| CG A46T A47T | 0.446 ± 0.37 | 0.452 ± 0.058 |
| CG A36C A37C | 0.196 ± 0.61 | 0.127 ± 0.018 |
| CG A75G | -0.592 ± 0.42 | -0.877 ± 0.4 |
| CG A75T | -0.0748 ± 0.42 | -0.289 ± 0.15 |

| Variant | relative integration efficiency (log2) [1] | relative integration efficiency (log2) [2] |
| --- | --- | --- |
| CG A75C | 0.0557 ± 0.24 | 0.219 ± 0.63 |
| CG A50T G51C C52G A53T | -0.839 ± 1.2 | -0.552 ± 0.39 |
| CG A70T | -0.297 ± 0.68 | -0.12 ± 0.26 |
| CG A70G | -0.515 ± 0.21 | -0.664 ± 0.41 |
| CG A70C | 0.268 ± 0.068 | 0.0994 ± 0.073 |
| CG A70C C71A | -1.75 ± 1.2 | -1.24 ± 0.54 |
| CG A33C C87A T113G | 0.0172 ± 0.12 | -0.0603 ± 0.021 |
| TG A22T G24T T31C A33C T76A T78G C87A | 1.14 ± 0.4 | 0.463 ± 0.49 |
| CG A34C A36G T38C T42C A62G A65G A66C | -0.874 ± 0.72 | -0.721 ± 0.33 |
| CG A40C T41G | 0.224 ± 0.022 | -0.0298 ± 0.00035 |
| CG A73C | -2.78 ± 1.5 | -1.14 ± 0.6 |
| CG A73G | 0.14 ± 0.13 | 0.0329 ± 0.31 |
| CG A73T | -0.055 ± 0.17 | -0.536 ± 0.45 |
| CG A23G G24T A33T | 0.0764 ± 0.17 | -0.108 ± 0.099 |
| CG A69T | -0.153 ± 0.2 | -0.525 ± 0.1 |
| CG A69G | -0.41 ± 0.78 | -0.422 ± 0.41 |
| CG A69C | -0.309 ± 0.7 | -0.363 ± 0.1 |
| TG A23G G24T A33T T76A A77G C87T | 0.312 ± 0.44 | -0.26 ± 0.39 |
| CG A29T | -0.0387 ± 0.14 | 0.26 ± 0.13 |
| CG A29C | -0.501 ± 0.28 | -0.333 ± 0.36 |

| Variant | relative integration efficiency (log2) [1] | relative integration efficiency (log2) [2] |
| --- | --- | --- |
| CG A29G | -0.232 ± 0.74 | -0.238 ± 0.44 |
| CG A81C T82G | -1.43 ± 0.033 | -0.963 ± 0.26 |
| CG A62T C63G A64T A65T | 0.238 ± 0.12 | 0.339 ± 0.046 |
| CG A59C C60A | -0.233 ± 0.25 | -0.0701 ± 0.0044 |
| CG A27C A81C A107C | -1.49 ± 1.6 | -1.32 ± 0.78 |
| CG A54T C55G T56A T57A | -0.43 ± 0.9 | -0.861 ± 0.54 |
| CG A47T T48A C49G A50T | -1.26 ± 1.6 | -0.735 ± 0.52 |
| CG A75C T76G | -2.22 ± 0.87 | -1.59 ± 0.54 |
| CG A36G A65G A66C | -0.205 ± 0.26 | -0.491 ± 0.18 |
| CG A81C T82G A83C T84G | -1.87 ± 0.22 | -1.9 ± 0.68 |
| CG A46T A47T T48G C49T A50G G51A C52G A53C A54G C55G T56A C61A | -1.93 ± 2 | -1.9 ± 0.78 |
| CG A40T T41A | -0.491 ± 0.97 | -0.0047 ± 0.075 |
| CG A64T A65T A66T A67T | -0.239 ± 0.35 | -0.0292 ± 0.19 |
| CG A58T A59T C60G C61G | -0.383 ± 0.24 | -0.275 ± 0.27 |
| CG A47C T48G | -0.613 ± 0.46 | -0.656 ± 0.35 |
| CG A50C G51T | -0.407 ± 0.67 | -0.196 ± 0.22 |
| CG A69C A70C | -0.684 ± 0.62 | -0.537 ± 0.29 |
| CG A59G | 0.164 ± 0.45 | -0.0472 ± 0.057 |

— the supplement of paper PMC10201428
